Test results: paper PMC8017925, “Structural basis for differential recognition of phosphohistidine-containing peptides by 1-pHis and 3-pHis monoclonal antibodies” (Proceedings of the National Academy of Sciences of the …, 2021)

Tested on: ACLY pHis peptide
Test: BLI of pHis Fabs with phosphorylated ACLY peptide
Type: binding
Conditions: GpHAGAC motif
Description: Next, we turned to further analyze the peptide selectivity using BLI experiments. Nine amino acid peptide sequences from proteins known to undergo histidine phosphorylation were selected and synthesized (SI Appendix, Table S2). The biotinylated peptides ACLY, NM23, SCS, and Common-His were chemically phosphorylated using phosphoramidate (8 h at 23 °C), and affinity-purified using immobilized 1-pHis IgGs or 3-pHis IgGs, as described above. BLI signal intensity was used to assess peptide binding to the Fabs. […]
The binding kinetics of pHis Fabs with the peptides (pTza and pHis) were evaluated with an Octet RED96e (FortéBio). […] The biotinylated pTza peptides or pHis peptides (20 nM) with and without phosphoramidate treatment were coated onto these streptavidin biosensors and analyzed for their binding to varying concentrations of the pHis Fabs with an association time of 120 s and dissociation time of 200 s. […] The data were analyzed using the Octet software (FortéBio) and the rates of association and dissociation were obtained by global fitting data to the 1:1 Langmuir interaction model. […]
1H NMR of ACLYana peptide. A mixture of 5 mM ACLYana peptide and 250 mM phosphoramidate in 20 mM d18-Hepes, pH 8.0, 50 mM NaCl in D2O was incubated at 23 °C and monitored over the course of 29 h. […]

B1: SC44-8: Fab of rabbit 3-pHis-specific monoclonal antibody with proclivity for GpHAGA motif (antibody, V domains shown)
VH: QSVKESGRGLVQPGGSLTLTCTASGFSIDSYGFSWVRQAPGKGLEHIGYLTAGGRAFYASWAKSRSTITRNTNENTVTLKMTSLTAADTATYFCAKLGSGNPVAIWGPGTLVTVSS
VL: QVLTQTPSFTSAAVGGTVTINCQSSQSVWRNKNLAWYQQKPGQPPKRLIYAIATLDSGVPSRFSGSGSGTQFTLTISDVQCDDAATYYCVGHYGSENDAYYAFGGGTEVVVK
BLI signal with ACLY peptide: 0.5 nm
